Assay results from paper PMC8945002, “Pseudomonas aeruginosa Bacterioferritin Is Assembled from FtnA and BfrB Subunits with the Relative Proportions Dependent on the Environmental Oxygen Availability” (Biomolecules, 2022).

B1: Bfr containing only BfrB subunits (24-mer BfrB) isolated from P. aeruginosa (natural protein)
chain: not shown
notes: BfrB, bacterioferritin subunit of P. aeruginosa PAO1, gene PA3531; subunit mass 18,552 Da by LC-MS; 24 copies hold for the homooligomer (SPR target, self rows); in the rows with m3 it stands for the BfrB subunits of the heterooligomeric 24-mer Bfr; also called homooligomeric BfrB; Bfr (0% FtnA, 21% O2); source: purified from P. aeruginosa PAO1 or ΔftnA cells (Q Sepharose, hydroxyapatite, Superdex …)

Legend:
[1] = biological target: the molecule itself; test: SEC; Superdex 200 Increase 10/300 GL, 100 mM phosphate buffer pH 7.6, 1 mM TCEP; pure Bfr from P. aeruginosa; elution volume compared with a ferritin standard
[2] = biological target: the molecule itself; test: native gel or EMSA; lysates of PAO1, ΔftnA and ΔbfrB cells (21%, 10%, 2% O2 or anaerobic) on native PAGE, stained for iron with Ferene S; BfrBrec and FtnArec as mobility standards; bands excised, digested with trypsin and identified by LC-MS
[3] = biological target: B1; test: SPR; Biacore X100, 25 °C; Bfr or FtnArec immobilised on CM5 chips by amine coupling (100 nM in 10 mM sodium acetate pH 5.0); Bfd 0-40 μM flowed at 5 µL/min in PBS pH 7.4 with 1 mM TCEP; steady-state analysis, steric factor n set to 0.91; conditions: both partners purified
[4] = biological target: T1, heterooligomeric 24-mer Bfr containing ~45% FtnA, isolated from PAO1 cells cultured in 2% O2 (P. aeruginosa PAO1 (endogenous), UniProt Q9HY79 1-158; Q9HWF9 1-154); test: as above; conditions: both partners purified
T1 construct: BfrB subunit of P. aeruginosa PAO1, gene PA3531; 18,552 Da; ~55% of the 24 subunits; FtnA subunit of P. aeruginosa PAO1, gene PA4235; 17,940 Da; ~45% of the 24 subunits; 24 subunits in all; a population of molecules of varying composition, on average ~45% FtnA; heme in the BfrB dimers; also called heterooligomeric Bfr; Bfr 45 (2% O2); source: purified from P. aeruginosa PAO1 cultured in 2% O2 (Q …)
T1 sequence (Q9HY79 whole entry, chain 1 of 2, one chain of several): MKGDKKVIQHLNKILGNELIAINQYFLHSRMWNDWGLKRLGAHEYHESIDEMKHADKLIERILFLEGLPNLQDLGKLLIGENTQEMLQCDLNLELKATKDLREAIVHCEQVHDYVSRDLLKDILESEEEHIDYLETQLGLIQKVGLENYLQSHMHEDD

Binder: B1
- stoichiometry N [1]: 24

B2: FtnA subunit of P. aeruginosa (endogenous) (natural protein, P. aeruginosa PAO1 (endogenous), UniProt Q9HWF9 1-154, looked up)
chain: MQGHPEVIDYLNTLLTGELAARDQYFIHSRMYEDWGFSKLYERLNHEMEEETQHADALLRRILLLEGTPRMRPDDIHPGTTVPEMLEADLKLERHVRAALAKGIALCEQHKDFVSRDILKAQLADTEEDHAYWLEQQLGLIARMGLENYLQSQI
notes: FtnA, bacterial ferritin subunit of P. aeruginosa PAO1, gene PA4235 (formerly annotated bfrA); subunit mass 17,940 Da by LC-MS; Found in PAO1 only as a subunit of heterooligomeric Bfr; as 24-mer FtnA only in lysates of ΔbfrB cells cultured in 2% O2 or anaerobically; also called bacterial ferritin; formerly BfrA; source: purified from P. aeruginosa PAO1 as part of Bfr (Q Sepharose, hydroxyapatite, …)
- stoichiometry N [2]: 24

B3: bacterioferritin-associated ferredoxin (Bfd) (natural protein, P. aeruginosa, UniProt Q9HY80 1-73, looked up)
chain: MYVCLCQGVTDNQIRDAIYEGCCSYREVREATGVGTQCGKCACLAKQVVRETLNDLQSAQPVPAFGTTAFVAA
notes: Bfd, the bacterioferritin-associated [2Fe-2S] ferredoxin of P. aeruginosa, product of the bfd gene next to bfrB; Holds a [2Fe-2S] cluster
- Kd [3]: 4.7 ± 0.8 µM
- Kd [4]: 4.3 ± 0.5 µM
